Experiments:
[1] = molecular target: human CSF-1 receptor full-length ectodomain, domains D1-D5 (hCSF-1R_(D1-D5)) (human) (UniProt P07333); assay: SAXS
[2] = molecular target: human CSF-1 receptor full-length ectodomain, domains D1-D5 (hCSF-1R_(D1-D5)) (human) (UniProt P07333); assay: ITC
Target sequence in this assay (P07333 20-517): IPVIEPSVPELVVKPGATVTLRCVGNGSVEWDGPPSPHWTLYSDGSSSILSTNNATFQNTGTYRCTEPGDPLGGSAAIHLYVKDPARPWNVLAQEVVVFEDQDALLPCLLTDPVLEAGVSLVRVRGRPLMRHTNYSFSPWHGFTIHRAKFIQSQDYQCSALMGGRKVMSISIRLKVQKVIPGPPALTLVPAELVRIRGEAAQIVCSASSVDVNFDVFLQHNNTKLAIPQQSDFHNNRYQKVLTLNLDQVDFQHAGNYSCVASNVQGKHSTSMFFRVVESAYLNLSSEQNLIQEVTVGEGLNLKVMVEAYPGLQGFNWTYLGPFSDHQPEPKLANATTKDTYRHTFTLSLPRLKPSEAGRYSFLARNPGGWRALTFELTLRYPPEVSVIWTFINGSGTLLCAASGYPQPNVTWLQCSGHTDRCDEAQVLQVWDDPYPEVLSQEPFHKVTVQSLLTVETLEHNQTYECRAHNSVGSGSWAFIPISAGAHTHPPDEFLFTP

[3] = molecular target: mouse CSF-1 receptor full-length ectodomain, domains D1-D5 (mCSF-1R_(D1-D5)) (mouse) (UniProt P09581); assay: ITC
[4] = molecular target: human CSF-1 receptor full-length ectodomain, domains D1-D5 (hCSF-1R_(D1-D5)) (human) (UniProt P07333); assay: field-flow fractionation
Target sequence in this assay (P07333 20-517): as above

[5] = molecular target: human Colony Stimulating Factor-1 (hCSF-1), residues 1-149 (human); assay: field-flow fractionation
[6] = molecular target: mouse CSF-1 receptor, first three extracellular domains (mCSF-1R_(D1-D3)) (mouse) (UniProt P09581); assay: ITC
mouse CSF-1 receptor, first three extracellular domains (mCSF-1R_(D1-D3)) (mouse), sequence (P09581 20-298): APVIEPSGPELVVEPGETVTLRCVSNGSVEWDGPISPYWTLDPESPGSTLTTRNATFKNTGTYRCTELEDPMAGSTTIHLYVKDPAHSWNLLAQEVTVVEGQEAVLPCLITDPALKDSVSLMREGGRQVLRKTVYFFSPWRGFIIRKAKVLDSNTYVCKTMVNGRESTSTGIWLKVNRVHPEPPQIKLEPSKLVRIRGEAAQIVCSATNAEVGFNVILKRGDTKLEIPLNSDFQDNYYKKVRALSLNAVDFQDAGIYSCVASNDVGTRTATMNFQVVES

mouse CSF-1 receptor full-length ectodomain, domains D1-D5 (mCSF-1R_(D1-D5)) (mouse), sequence (P09581 20-515): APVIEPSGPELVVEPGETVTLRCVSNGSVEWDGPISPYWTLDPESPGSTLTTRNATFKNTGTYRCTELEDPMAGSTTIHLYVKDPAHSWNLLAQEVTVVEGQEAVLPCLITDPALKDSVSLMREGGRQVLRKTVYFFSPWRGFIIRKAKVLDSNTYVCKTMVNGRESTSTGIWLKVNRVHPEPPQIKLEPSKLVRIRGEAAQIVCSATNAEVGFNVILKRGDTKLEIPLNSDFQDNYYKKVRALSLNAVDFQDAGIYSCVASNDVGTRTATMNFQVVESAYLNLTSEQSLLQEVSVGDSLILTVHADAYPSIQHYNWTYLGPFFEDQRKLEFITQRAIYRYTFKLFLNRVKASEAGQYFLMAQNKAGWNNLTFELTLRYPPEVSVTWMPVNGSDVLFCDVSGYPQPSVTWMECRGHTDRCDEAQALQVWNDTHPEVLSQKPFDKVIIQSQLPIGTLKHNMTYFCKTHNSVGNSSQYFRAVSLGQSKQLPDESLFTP

Substance | stoichiometry N [1] | Kd [2] [nM] | stoichiometry N (CSF-1 dimer per receptor) [2] | Kd [3] [nM] | stoichiometry N (CSF-1 dimer per receptor) [3] | stoichiometry N (CSF-1 dimer per receptor) [4] | stoichiometry N [5] | stoichiometry N (CSF-1 dimer per receptor) [6]
human CSF-1 receptor full-length ectodomain, domains D1-D5 (hCSF-1R_(D1-D5)) (from UniProt P07333 20-517) | 2 | – | – | – | – | – | – | –
human Colony Stimulating Factor-1 (hCSF-1), residues 1-149 (ligand) | – | 13.6 | 0.5 | 66.2 | 0.5 | 0.5 | 2 | –
mouse Colony Stimulating Factor-1 (mCSF-1), residues 1-149 (ligand) | – | 2800 | 0.5 | 21.7 | 0.5 | – | – | 0.5

Reference: PMC3260422
